Legend:
[1] = target: CD27 (human (endogenous in CD4+ T cells of blood donors)) (UniProt P26842)
[2] = target: CD27 (human (endogenous in CD4+ T cells of blood donors)) (UniProt P26842); remark: listed apart in the source

UniProt P26842, sequence (P26842 20-260): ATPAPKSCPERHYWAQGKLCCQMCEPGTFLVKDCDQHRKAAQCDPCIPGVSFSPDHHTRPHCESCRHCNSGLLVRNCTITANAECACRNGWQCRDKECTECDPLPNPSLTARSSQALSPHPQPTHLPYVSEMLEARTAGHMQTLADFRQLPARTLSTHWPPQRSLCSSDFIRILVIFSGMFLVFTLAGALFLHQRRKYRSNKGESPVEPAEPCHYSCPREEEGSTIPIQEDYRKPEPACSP

B1: CD70 (ligand)
chain: MPEEGSGCSVRRRPYGCVLRAALVPLVAGLVICLVVCIQRFAQAQQQLPLESLGWDVAELQLNHTGPQQDPRLYWQGGPALGRSFLHGPELDKGQLRIHRDGIYMVHIQVTLAICSSTTASRHHPTTLAVGICSPASRSISLLRLSFHQGCTIASQRLTPLARGDTLCTNLTGTLLPSRNTDETFFGVQWVRP
50%: HB1.F3 (NSC)-mediated apoptosis of CD4+ T cells (Annexin V/PI, FACS) in co-culture with anti-CD27 blocking mAb (LG.7F9), 0-1 ug/ml [1] | HB1.F3 (NSC)-mediated apoptosis of CD4+ T cells (Annexin V/PI, FACS) in co-culture with anti-CD70 blocking mAb (BU69), 0-1 ug/ml [1] | decrease in FasL expression level on CD4+ T cells (FACS) in co-culture with HB1.F3 after addition of anti-CD27 mAb [2]

— PMC3706991
